The target in experiment [1] is SipL-3×FLAG (Clostridioides difficile) (UniProt Q181G7). Description: co-IP; SipL-3×FLAG immunoprecipitated with anti-FLAG magnetic beads from cleared lysates of sporulating C. difficile (22 h in the legend, 24 h in the methods), eluted with FLAG peptide; untagged SpoIVA detected by Western blot; SpoIVA/SipL ratio in the elution set to 1 for WT.
Experiment [2] addresses SipL (bacterial two-hybrid fusion from pKNT25-sipL) (Clostridioides difficile) (UniProt Q181G7). Briefly: two-hybrid; bacterial adenylate cyclase two-hybrid (BACTH) in E. coli BTH101; pKNT25-sipL with pUT18C-spoIVA variants; plates with 0.5 mM IPTG, 40 h at 30°C; β-galactosidase activity in Miller units.

As for “SpoIVA K35A, untagged, in sporulating C. difficile (from UniProt Q182W3 1-491) (natural protein)”, the fold less coimmunoprecipitated with SipL-3×FLAG relative to wild-type SpoIVA in experiment [1] turned out to be 3 fold.

For “SpoIVA D102A, untagged, in sporulating C. difficile (from UniProt Q182W3 1-491) (natural protein)”, the fold more coimmunoprecipitated with SipL-3×FLAG relative to wild-type SpoIVA in experiment [1] was 1.8 fold.

On to “SpoIVA T75A, untagged, in sporulating C. difficile (from UniProt Q182W3 1-491) (natural protein)”, for which, in experiment [1], the fold more coimmunoprecipitated with SipL-3×FLAG relative to wild-type SpoIVA worked out at 1.5 fold.

In experiment [2], “SpoIVA K35E (bacterial two-hybrid fusion, pUT18C) (from UniProt Q182W3 1-491) (natural protein)” registered a fold reduction of binding to SipL relative to wild-type SpoIVA (β-galactosidase activity) of 100 fold.

In the case of “SpoIVA K35A (bacterial two-hybrid fusion, pUT18C) (from UniProt Q182W3 1-491) (natural protein)”, the fold reduction of binding to SipL relative to wild-type SpoIVA (β-galactosidase activity) in experiment [2] is 3 fold.

Turning to “SpoIVA K35E, untagged, in sporulating C. difficile (from UniProt Q182W3 1-491) (natural protein)”, the fold less coimmunoprecipitated with SipL-3×FLAG relative to wild-type SpoIVA in experiment [1] turned out to be 10 fold.

In experiment [2], “SpoIVA T75A (bacterial two-hybrid fusion, pUT18C) (from UniProt Q182W3 1-491) (natural protein)” returned a fold increase of binding to SipL relative to WT SpoIVA (β-galactosidase activity) of 2 fold.

These data come from paper PMC7549369.
